Results published in paper PMC5513132, “Two bifunctional enzymes from the marine protist Thraustochytrium roseum: biochemical characterization of wax ester synthase/acyl-CoA:diacylglycerol acyltransferase activity catalyzing wax ester and triacylglycerol synthesis” (Biotechnology for Biofuels, 2017).

Experiments:
Experiment in all cases: purified protein
Assay type in all cases: biochemical, Thraustochytrium roseum
Conditions in all cases: 100 μM hexadecanol, pH 7.4, 37 °C, acyl-CoA varied 15-90 μM
[1] = test system: CCCCCCCCCC(=O)SCCNC(=O)CCNC(=O)[C@H](O)C(C)(C)COP(=O)(O)OP(=O)(O)OC[C@H]1O[C@@H](n2cnc3c(N)ncnc32)[C@H](O)[C@@H]1OP(=O)(O)O
[2] = test system: CCCCC/C=C\C/C=C\C/C=C\C/C=C\CCCC(=O)SCCNC(=O)CCNC(=O)[C@H](O)C(C)(C)COP(=O)(O)OP(=O)(O)OC[C@H]1O[C@@H](n2cnc3c(N)ncnc32)[C@H](O)[C@@H]1OP(=O)(O)O
[3] = test system: CCCCCCCCCCCCCC(=O)SCCNC(=O)CCNC(=O)[C@H](O)C(C)(C)COP(=O)(O)OP(=O)(O)OC[C@H]1O[C@@H](n2cnc3c(N)ncnc32)[C@H](O)[C@@H]1OP(=O)(O)O
[4] = test system: CCCCCCCCCCCCCCCCCC(=O)SCCNC(=O)CCNC(=O)[C@H](O)C(C)(C)COP(=O)(O)OP(=O)(O)OC[C@H]1O[C@@H](n2cnc3c(N)ncnc32)[C@H](O)[C@@H]1OP(=O)(O)O
[5] = test system: CCCCCCCCCCCC(=O)SCCNC(=O)CCNC(=O)[C@H](O)C(C)(C)COP(=O)(O)OP(=O)(O)OC[C@H]1O[C@@H](n2cnc3c(N)ncnc32)[C@H](O)[C@@H]1OP(=O)(O)O
[6] = test system: CC/C=C\C/C=C\C/C=C\C/C=C\C/C=C\CCCC(=O)SCCNC(=O)CCNC(=O)[C@H](O)C(C)(C)COP(=O)(O)OP(=O)(O)OC[C@H]1O[C@@H](n2cnc3c(N)ncnc32)[C@H](O)[C@@H]1OP(=O)(O)O
[7] = test system: CCCCCCCCCCCCCCCC(=O)SCCNC(=O)CCNC(=O)[C@H](O)C(C)(C)COP(=O)(O)OP(=O)(O)OC[C@H]1O[C@@H](n2cnc3c(N)ncnc32)[C@H](O)[C@@H]1OP(=O)(O)O
[8] = test system: CCCCC/C=C\C/C=C\C/C=C\CCCCC(=O)SCCNC(=O)CCNC(=O)[C@H](O)C(C)(C)COP(=O)(O)OP(=O)(O)OC[C@H]1O[C@@H](n2cnc3c(N)ncnc32)[C@H](O)[C@@H]1OP(=O)(O)O
[9] = test system: CCCCCCCC(=O)SCCNC(=O)CCNC(=O)[C@H](O)C(C)(C)COP(=O)(O)OP(=O)(O)OC[C@H]1O[C@@H](n2cnc3c(N)ncnc32)[C@H](O)[C@@H]1OP(=O)(O)O
purified protein [10] = substrate: CC/C=C\C/C=C\C/C=C\C/C=C\C/C=C\CCCC(=O)SCCNC(=O)CCNC(=O)[C@H](O)C(C)(C)COP(=O)(O)OP(=O)(O)OC[C@H]1O[C@@H](n2cnc3c(N)ncnc32)[C@H](O)[C@@H]1OP(=O)(O)O; remark: listed apart in the source
purified protein [11] = substrate: CCCCCCCCCCCCCCCCCC(=O)SCCNC(=O)CCNC(=O)[C@H](O)C(C)(C)COP(=O)(O)OP(=O)(O)OC[C@H]1O[C@@H](n2cnc3c(N)ncnc32)[C@H](O)[C@@H]1OP(=O)(O)O; remark: listed apart in the source
purified protein [12] = substrate: CCCCCCCCCC(=O)SCCNC(=O)CCNC(=O)[C@H](O)C(C)(C)COP(=O)(O)OP(=O)(O)OC[C@H]1O[C@@H](n2cnc3c(N)ncnc32)[C@H](O)[C@@H]1OP(=O)(O)O; remark: listed apart in the source
purified protein [13] = substrate: CCCCC/C=C\C/C=C\C/C=C\CCCCC(=O)SCCNC(=O)CCNC(=O)[C@H](O)C(C)(C)COP(=O)(O)OP(=O)(O)OC[C@H]1O[C@@H](n2cnc3c(N)ncnc32)[C@H](O)[C@@H]1OP(=O)(O)O; remark: listed apart in the source
purified protein [14] = substrate: CCCCCCCCCCCCCC(=O)SCCNC(=O)CCNC(=O)[C@H](O)C(C)(C)COP(=O)(O)OP(=O)(O)OC[C@H]1O[C@@H](n2cnc3c(N)ncnc32)[C@H](O)[C@@H]1OP(=O)(O)O; remark: listed apart in the source
purified protein [15] = substrate: CCCCCCCCCCCCCCCC(=O)SCCNC(=O)CCNC(=O)[C@H](O)C(C)(C)COP(=O)(O)OP(=O)(O)OC[C@H]1O[C@@H](n2cnc3c(N)ncnc32)[C@H](O)[C@@H]1OP(=O)(O)O; remark: listed apart in the source
purified protein [16] = substrate: CCCCCCCC(=O)SCCNC(=O)CCNC(=O)[C@H](O)C(C)(C)COP(=O)(O)OP(=O)(O)OC[C@H]1O[C@@H](n2cnc3c(N)ncnc32)[C@H](O)[C@@H]1OP(=O)(O)O; remark: listed apart in the source
purified protein [17] = substrate: CCCCC/C=C\C/C=C\C/C=C\C/C=C\CCCC(=O)SCCNC(=O)CCNC(=O)[C@H](O)C(C)(C)COP(=O)(O)OP(=O)(O)OC[C@H]1O[C@@H](n2cnc3c(N)ncnc32)[C@H](O)[C@@H]1OP(=O)(O)O; remark: listed apart in the source
purified protein [18] = substrate: CCCCCCCCCCCC(=O)SCCNC(=O)CCNC(=O)[C@H](O)C(C)(C)COP(=O)(O)OP(=O)(O)OC[C@H]1O[C@@H](n2cnc3c(N)ncnc32)[C@H](O)[C@@H]1OP(=O)(O)O; remark: listed apart in the source

TrWSD5 (ΔTmTrWSD5) (Thraustochytrium roseum; DEL472-494)
Km [1]: 0.96 µM | Vmax [1]: 0.0589 µmol/min/mg | kcat [1]: 0.0941 s⁻¹ | kcat/Km [1]: 98300 M⁻¹ s⁻¹ | Km [2]: 226.35 µM | Vmax [2]: 0.103 µmol/min/mg | kcat [2]: 0.165 s⁻¹ | kcat/Km [2]: 729 M⁻¹ s⁻¹ | Km [3]: 18.5 µM | Vmax [3]: 0.207 µmol/min/mg | kcat [3]: 0.331 s⁻¹ | kcat/Km [3]: 17900 M⁻¹ s⁻¹ | Km [4]: 75.87 µM | Vmax [4]: 0.379 µmol/min/mg | kcat [4]: 0.604 s⁻¹ | kcat/Km [4]: 7960 M⁻¹ s⁻¹ | Km [5]: 25.93 µM | Vmax [5]: 0.152 µmol/min/mg | kcat [5]: 0.243 s⁻¹ | kcat/Km [5]: 9370 M⁻¹ s⁻¹ | Km [6]: 106.2 µM | Vmax [6]: 0.312 µmol/min/mg | kcat [6]: 0.498 s⁻¹ | kcat/Km [6]: 4690 M⁻¹ s⁻¹ | Km [7]: 24.77 µM | Vmax [7]: 0.213 µmol/min/mg | kcat [7]: 0.341 s⁻¹ | kcat/Km [7]: 13700 M⁻¹ s⁻¹ | Km [8]: 284.68 µM | Vmax [8]: 0.152 µmol/min/mg | kcat [8]: 0.242 s⁻¹ | kcat/Km [8]: 850 M⁻¹ s⁻¹ | Km [9]: 12.25 µM | Vmax [9]: 0.0639 µmol/min/mg | kcat [9]: 0.102 s⁻¹ | kcat/Km [9]: 8330 M⁻¹ s⁻¹

B1: TrWSD4 (Thraustochytrium roseum) (protein)
chain: MAENNNHLDEAVVDEAQREQDVEVEEEVEEEEEEEEEEEEEAVVEDVKATLADGPAEKSPKVAPKQTKRKGRRVKHRASVTTRLIGNLQREAQSKSSWVVGLLFFKSDPGFEAVRETVGKRLLQIPRFRSKLTARRFPAKMEFVELDDDEIDMDYHFRQAFQDRTATLDEVDEFVGSMFDGFNHPMDKPLWQITYIPKLEDGRAVLITNISHIVGDGIAQVEVLMRLLDPVKESKGEKVQKPRTGANKKRKPPALGPFTKAKVFMGGVWEGFFSVISSPDKKNTLRLKDVNKPSPTKRCTFSETIPLDKVKELKNMYEGATLNDVLVTLLTLTLRAYFREVGDKGALRNKVRAQFPINIRSKSEGPFRNDNPRNKFTYGFMPFHVSGNRDASATFWRTKRTLDKIKSSPSPVVQHQVGKVISNIMPLKALNAQLLNLAAKATAQVSNVPGPQDAVTVAGTEVDDMRFLLYSPLSFYVGLLTYNGNLSASFCIDSALADPRLISKHWLPEFEKFYAHAKEAAGESGLIRKPRSCLDCL
Km (purified protein [10]): 131.16 µM | Vmax (purified protein [10]): 0.00905 µmol/min/mg | kcat (purified protein [10]): 0.0114 s⁻¹ | kcat/Km (purified protein [10]): 86.6 M⁻¹ s⁻¹ | Km (purified protein [11]): 19.15 µM | Vmax (purified protein [11]): 0.0302 µmol/min/mg | kcat (purified protein [11]): 0.0379 s⁻¹ | kcat/Km (purified protein [11]): 1980 M⁻¹ s⁻¹ | Km (purified protein [12]): 17.6 µM | Vmax (purified protein [12]): 0.0122 µmol/min/mg | kcat (purified protein [12]): 0.0154 s⁻¹ | kcat/Km (purified protein [12]): 873 M⁻¹ s⁻¹ | Km (purified protein [13]): 280.86 µM | Vmax (purified protein [13]): 0.0188 µmol/min/mg | kcat (purified protein [13]): 0.0236 s⁻¹ | kcat/Km (purified protein [13]): 84 M⁻¹ s⁻¹ | Km (purified protein [14]): 3.94 µM | Vmax (purified protein [14]): 0.0202 µmol/min/mg | kcat (purified protein [14]): 0.0254 s⁻¹ | kcat/Km (purified protein [14]): 6440 M⁻¹ s⁻¹ | Km (purified protein [15]): 3.08 µM | Vmax (purified protein [15]): 0.0255 µmol/min/mg | kcat (purified protein [15]): 0.032 s⁻¹ | kcat/Km (purified protein [15]): 10400 M⁻¹ s⁻¹ | Km (purified protein [16]): 29.93 µM | Vmax (purified protein [16]): 0.0148 µmol/min/mg | kcat (purified protein [16]): 0.0185 s⁻¹ | kcat/Km (purified protein [16]): 619 M⁻¹ s⁻¹ | Km (purified protein [17]): 297.17 µM | Vmax (purified protein [17]): 0.0118 µmol/min/mg | kcat (purified protein [17]): 0.0148 s⁻¹ | kcat/Km (purified protein [17]): 49.9 M⁻¹ s⁻¹ | Km (purified protein [18]): 0.14 µM | Vmax (purified protein [18]): 0.0161 µmol/min/mg | kcat (purified protein [18]): 0.0202 s⁻¹ | kcat/Km (purified protein [18]): 146000 M⁻¹ s⁻¹
